Patent US20120058906A1 (published 2012)

Tests used:
[1] = target: T1, rHuman ErbB2/Fc Chimera, CF (R&D Systems Cat#1129-ER) (human, UniProt P04626 23-652); experiment: MSD ECL multi-spot assay, antigen spotted on plate, Fab 0.51 uM; blank spot 1393
T1 construct: Bought protein; also called HER2/neu; human epidermal growth factor 2 receptor; Fc part of the bought chimera not given

[2] = target: T2, rHuman HGF R/c-MET/Fc Chimera, CF (R&D Systems Cat#358-MT/CF) (human, UniProt P08581 25-932); experiment: as above
T2 construct: Bought protein; also called HGF R/Fc; hepatocyte growth factor receptor; Fc part of the bought chimera not given

[3] = target: T3, rHuman CD44/Fc Chimera, CF (R&D Systems Cat#3660-CD) (human, UniProt P16070 21-220); experiment: as above
T3 construct: Bought protein; Fc part of the bought chimera not given

[4] = target: T4, rHuman IGF-1 sR (IGF-1 sR), CF (R&D Systems Cat#391-GR) (human, UniProt P08069 31-932); experiment: as above
T4 construct: Bought soluble receptor; also called insulin-like growth factor-1 soluble receptor; IGF-R1

[5] = target: T5, Recombinant Human DLL4 (R&D Systems Cat#1506-D4/CF) (human, UniProt Q9NR61 27-524); experiment: as above
T5 construct: Bought protein; also called delta-like protein 4; rHuman DLL4

[6] = target: T6, rHuman Notch-1/Fc Chimera, CF (R&D Systems Cat#3647-TK) (human, UniProt P46531 19-526); experiment: MSD ECL multi-spot assay, antigen spotted on plate, Fab 0.48 uM; blank spot 2877;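 further: blank spot per well as comparator with Hit at signal to blank ratio of 4 or more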
T6 construct: Bought protein; Fc part of the bought chimera not given

[7] = target: T5, Recombinant Human DLL4 (R&D Systems …); experiment: as above
[8] = target: T1, rHuman ErbB2/Fc Chimera, CF (R&D …); experiment: MSD ECL multi-spot assay, antigen spotted on plate, Fab 0.06 uM; blank spot 842
[9] = target: T3, rHuman CD44/Fc Chimera, CF (R&D Systems …); experiment: as above
[10] = target: T4, rHuman IGF-1 sR (IGF-1 sR), CF (R&D …); experiment: as above
[11] = target: T5, Recombinant Human DLL4 (R&D Systems …); experiment: as above
[12] = target: T7, rHuman P-Cadherin/Fc Chimera, CF (R&D Systems Cat#861-PC) (human, UniProt P22223 108-654); experiment: MSD ECL multi-spot assay, antigen spotted on plate, Fab 0.28 uM; blank spot 1773
T7 construct: Bought protein; also called CDH3; Fc part of the bought chimera not given

[13] = target: T6, rHuman Notch-1/Fc Chimera, CF (R&D …); experiment: MSD ECL multi-spot assay, antigen spotted on plate, Fab 0.93 uM; blank spot 4760
[14] = target: T4, rHuman IGF-1 sR (IGF-1 sR), CF (R&D …); experiment: as above
[15] = target: T8, rHuman Erythropoietin R/Fc Chimera, CF (R&D Systems Cat#963-ER) (human, UniProt P19235 25-250); experiment: as above
T8 construct: Bought protein; also called EPOR; EPO R/Fc; Fc part of the bought chimera not given
T8 sequence: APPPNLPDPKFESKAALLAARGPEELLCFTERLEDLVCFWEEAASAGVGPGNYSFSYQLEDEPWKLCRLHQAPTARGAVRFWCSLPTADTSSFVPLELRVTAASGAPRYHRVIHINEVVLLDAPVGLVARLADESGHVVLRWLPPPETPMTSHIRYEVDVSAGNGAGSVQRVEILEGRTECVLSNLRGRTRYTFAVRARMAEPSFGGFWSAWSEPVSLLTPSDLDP

[16] = target: T1, rHuman ErbB2/Fc Chimera, CF (R&D …); experiment: MSD ECL multi-spot assay, antigen spotted on plate, Fab 0.13 uM; blank spot 786
[17] = target: T9, rHuman EGF R/Fc Chimera, CF (R&D Systems Cat#344-ER) (human, UniProt P00533 25-645); experiment: as above
T9 construct: Bought protein; also called epidermal growth factor receptor; Fc part of the bought chimera not given

[18] = target: T2, rHuman HGF R/c-MET/Fc Chimera, CF (R&D …); experiment: as above
[19] = target: T6, rHuman Notch-1/Fc Chimera, CF (R&D …); experiment: as above
[20] = target: T3, rHuman CD44/Fc Chimera, CF (R&D Systems …); experiment: as above
[21] = target: T4, rHuman IGF-1 sR (IGF-1 sR), CF (R&D …); experiment: as above
[22] = target: T8, rHuman Erythropoietin R/Fc Chimera, CF …; experiment: as above
[23] = target: T5, Recombinant Human DLL4 (R&D Systems …); experiment: as above
[24] = target: T1, rHuman ErbB2/Fc Chimera, CF (R&D …); experiment: MSD ECL multi-spot assay, antigen spotted on plate, Fab 1.57 uM; blank spot 797
[25] = target: T2, rHuman HGF R/c-MET/Fc Chimera, CF (R&D …); experiment: as above
[26] = target: T6, rHuman Notch-1/Fc Chimera, CF (R&D …); experiment: as above
[27] = target: T3, rHuman CD44/Fc Chimera, CF (R&D Systems …); experiment: as above
[28] = target: T4, rHuman IGF-1 sR (IGF-1 sR), CF (R&D …); experiment: as above
[29] = target: T8, rHuman Erythropoietin R/Fc Chimera, CF …; experiment: as above
[30] = target: T5, Recombinant Human DLL4 (R&D Systems …); experiment: as above

B1: Fab VH4-34_IGHD7-27*01_IGHJ4*01 & L5_IGKJ1*01 (Fab, V domains shown)
VH: QVQLQQWGAGLLKPSETLSLTCAVYGGSFSGYYWSWIRQPPGKGLEWIGEINHSGSTNYNPSLKSRVTISVDTSKNQFSLKLSSVTAADTAVYYCARANWGDYFDYWGQGTLVTVSS
VL: DIQMTQSPSSVSASVGDRVTITCRASQGISSWLAWYQQKPGKAPKLLIYAASSLQSGVPSRFSGSGSGTDFTLTISSLQPEDFATYYCQQANSFPPWTFGQGTKVEIKR
notes: Fab from E. coli; VH joined to the CH1 (Flag and His tags) of Plasmid A, VL to the kappa CL of Plasmid C
[1]
  ECL signal: 1700
[2]
  ECL signal: 1740
[3]
  ECL signal: 1880
[4]
  ECL signal: 1740
[5]
  ECL signal: 5650

B2: Fab VH1-46_IGHD6-13*01_IGHJ4*01 & A27_IGKJ1*01 (Fab, V domains shown)
VH: QVQLVQSGAEVKKPGASVKVSCKASGYTFTSYYMHWVRQAPGQGLEWMGIINPSGGSTSYAQKFQGRVTMTRDTSTSTVYMELSSLRSEDTAVYYCAREGYSSSWYDYFDYWGQGTLVTVSS
VL: not shown
notes: as for B1
[6]
  ECL signal: 12800
[7]
  ECL signal: 13700

B3: Fab VH1-3_IGHD4-23*01_IGHJ4*01 & L12_IGKJ1*01 (Fab, V domains shown)
VH: QVQLVQSGAEVKKPGASVKVSCKASGYTFTSYAMHWVRQAPGQRLEWMGWSNAGNGNTKYSQEFQGRVTITRDTSASTAYMELSSLRSEDMAVYYCARDDYGGNSDYFDYWGQGTLVTVSS
VL: not shown
[8]
  ECL signal: 1570
[9]
  ECL signal: 1680
[10]
  ECL signal: 2320
[11]
  ECL signal: 13600

B4: Fab VH1-46_IGHD2-15*01_IGHJ2*01 & L12_IGKJ1*01 (Fab, V domains shown)
VH: QVQLVQSGAEVKKPGASVKVSCKASGYTFTSYYMHWVRQAPGQGLEWMGIINPSGGSTSYAQKFQGRVTMTRDTSTSTVYMELSSLRSEDTAVYYCAREGYCSGGSCYSYWYFDLWGRGTLVTVSS
VL: not shown
[12]
  ECL signal: 8060

B5: Fab VH1-46_IGHD3-10*01_IGHJ4*01 & L12_IGKJ1*01 (Fab, V domains shown)
VH: QVQLVQSGAEVKKPGASVKVSCKASGYTFTSYYMHWVRQAPGQGLEWMGIINPSGGSTSYAQKFQGRVTMTRDTSTSTVYMELSSLRSEDTAVYYCAREYYYGSGSYYNDYFDYWGQGTLVTVSS
VL: not shown
[13]
  ECL signal: 23700
[14]
  ECL signal: 13900
[15]
  ECL signal: 16700

B6: Fab VH1-8_IGHD2-2*01_IGHJ6*01 & L12_IGKJ1*01 (Fab, V domains shown)
VH: QVQLVQSGAEVKKPGASVKVSCKASGYTFTSYDINWVRQATGQGLEWMGWMNPNSGNTGYAQKFQGRVTMTRNTSISTAYMELSSLRSEDTAVYYCARGGYCSSTSCYADYYYYYGMDVWGQGTTVTVSS
VL: not shown
[16]
  ECL signal: 840
[17]
  ECL signal: 859
[18]
  ECL signal: 969
[19]
  ECL signal: 1320
[20]
  ECL signal: 932
[21]
  ECL signal: 1170
[22]
  ECL signal: 1110
[23]
  ECL signal: 9850

B7: Fab VH1-46_IGHD3-10*01_IGHJ4*01 & O1_IGKJ1*01 (Fab, V domains shown)
VH: B5 VH
VL: DIVMTQTPLSLPVTPGEPASISCRSSQSLLDSDDGNTYLDWYLQKPGQSPQLLIYTLSYRASGVPDRFSGSGSGTDFTLKISRVEAEDVGVYYCMQRIEFPSWTFGQGTKVEIK
notes: as for B1
[24]
  ECL signal: 904
[25]
  ECL signal: 1040
[26]
  ECL signal: 1260
[27]
  ECL signal: 836
[28]
  ECL signal: 985
[29]
  ECL signal: 6390
[30]
  ECL signal: 1500
